{
  "source": "paper PMC7995614",
  "about": "“Arabidopsis thaliana 3-mercaptopyruvate sulfurtransferases interact with and are protected by reducing systems” (The Journal of Biological Chemistry, 2021)",
  "key": {"[1]": {"biological_target": "Cys298 (UniProt position 298, PIAASCGTGVT)", "experiment": "chemical modification (H2O2 inactivation) with activity readout", "settings": "Not stated for the pH pre-incubation. The activity assay was at 25 °C.; Not stated (100 mM buffers); 100 mM sodium citrate, MES, phosphate or borate buffers for the pre-incubation. Activity assay in 30 mM Tris-HCl pH 8.0.; Reduced enzyme (DTT-reduced and desalted), 2 uM, no substrate during the 3 min pre-incubation"}, "[2]": {"biological_target": "T1, STR2 (Arabidopsis thaliana, UniProt Q24JL3, C298S)", "T1 construct": "untagged, pET12a; E. coli BL21(DE3)", "T1 sequence (Q24JL3 1-342 C298S limits assumed)": "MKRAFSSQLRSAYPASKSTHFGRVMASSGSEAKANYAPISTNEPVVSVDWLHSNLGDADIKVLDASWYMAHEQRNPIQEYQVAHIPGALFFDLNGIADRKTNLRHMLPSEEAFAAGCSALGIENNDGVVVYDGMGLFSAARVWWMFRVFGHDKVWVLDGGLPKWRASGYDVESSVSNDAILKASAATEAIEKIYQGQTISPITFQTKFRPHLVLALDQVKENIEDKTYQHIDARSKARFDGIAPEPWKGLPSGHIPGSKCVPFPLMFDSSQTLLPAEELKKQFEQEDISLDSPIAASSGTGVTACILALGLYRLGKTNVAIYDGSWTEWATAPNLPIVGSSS", "experiment": "intrinsic tryptophan fluorescence quenching", "format": "binding", "settings": "2 μM protein, 100-fold excess 3-MP, pH 8.0; catalytic Cys variant"}, "[3]": {"biological_target": "T2, STR1 (Arabidopsis thaliana, UniProt O64530, C333S)", "T2 construct": "untagged (pET28a) or C-terminal His tag (used for Cys variants); E. coli BL21(DE3)", "T2 sequence (O64530 57-379 C333S)": "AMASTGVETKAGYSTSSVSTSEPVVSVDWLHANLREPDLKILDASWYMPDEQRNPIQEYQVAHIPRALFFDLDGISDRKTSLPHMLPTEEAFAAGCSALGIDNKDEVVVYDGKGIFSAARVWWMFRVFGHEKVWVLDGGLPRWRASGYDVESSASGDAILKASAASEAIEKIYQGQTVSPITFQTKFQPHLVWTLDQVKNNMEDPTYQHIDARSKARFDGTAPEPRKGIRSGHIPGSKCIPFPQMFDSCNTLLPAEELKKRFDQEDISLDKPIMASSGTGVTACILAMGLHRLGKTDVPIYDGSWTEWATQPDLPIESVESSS", "experiment": "intrinsic tryptophan fluorescence quenching", "format": "binding", "settings": "2 μM protein, 100-fold excess 3-MP, pH 8.0; catalytic Cys variant"}, "[4]": {"biological_target": "T3, STR1 (Arabidopsis thaliana, UniProt O64530)", "T3 construct": "untagged (pET28a) or C-terminal His tag (used for Cys variants); E. coli BL21(DE3)", "T3 sequence (O64530 57-379)": "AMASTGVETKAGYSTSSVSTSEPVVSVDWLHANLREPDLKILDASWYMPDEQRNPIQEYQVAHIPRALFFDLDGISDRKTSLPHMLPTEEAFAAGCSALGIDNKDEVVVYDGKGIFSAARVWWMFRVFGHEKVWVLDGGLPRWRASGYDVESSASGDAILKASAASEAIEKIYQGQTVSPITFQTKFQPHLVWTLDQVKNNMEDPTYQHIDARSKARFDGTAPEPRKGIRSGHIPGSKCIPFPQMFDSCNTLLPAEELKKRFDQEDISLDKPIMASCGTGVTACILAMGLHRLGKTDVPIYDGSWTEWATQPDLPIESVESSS", "experiment": "intrinsic tryptophan fluorescence quenching", "format": "binding"}, "[5]": {"biological_target": "T4, STR2 (Arabidopsis thaliana, UniProt Q24JL3)", "T4 construct": "untagged, pET12a; E. coli BL21(DE3)", "T4 sequence (Q24JL3 1-342 limits assumed)": "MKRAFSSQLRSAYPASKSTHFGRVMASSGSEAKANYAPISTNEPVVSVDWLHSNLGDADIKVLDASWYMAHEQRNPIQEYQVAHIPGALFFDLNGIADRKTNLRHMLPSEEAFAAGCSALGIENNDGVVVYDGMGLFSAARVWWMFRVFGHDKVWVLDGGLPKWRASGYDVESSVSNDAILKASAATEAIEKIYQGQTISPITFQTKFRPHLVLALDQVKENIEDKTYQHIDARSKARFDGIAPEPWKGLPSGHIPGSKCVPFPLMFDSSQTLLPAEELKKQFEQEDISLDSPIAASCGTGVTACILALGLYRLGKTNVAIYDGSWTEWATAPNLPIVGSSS", "experiment": "intrinsic tryptophan fluorescence quenching", "format": "binding"}, "[6]": {"biological_target": "Cys333 (UniProt position 333, PIMASCGTGVT)", "experiment": "chemical modification (H2O2 inactivation) with activity readout", "settings": "Not stated for the pH pre-incubation. The activity assay was at 25 °C.; Not stated (100 mM buffers); 100 mM sodium citrate, MES, phosphate or borate buffers for the pre-incubation. Activity assay in 30 mM Tris-HCl pH 8.0.; Reduced enzyme (DTT-reduced and desalted), 2 uM, no substrate during the 3 min pre-incubation"}, "[7]": {"tested_on": "Cys", "settings": "cited from earlier work"}, "[8]": {"substrate": "O=C(O)C(=O)CS", "experiment": "H2S release, methylene blue assay", "format": "biochemical, Arabidopsis thaliana", "settings": "apparent, sulfur donor, acceptor 10 μM TRXh1 with NADPH and NTRB, pH 8.0, 25 °C", "description": "(§1) H2S release, methylene blue assay on STR2"}, "[9]": {"substrate": "N[C@@H](CS)C(=O)O", "experiment": "H2S release, methylene blue assay", "format": "biochemical, Arabidopsis thaliana", "settings": "apparent, sulfur acceptor, 250 μM 3-MP, pH 8.0, 25 °C", "description": "as §1"}, "[10]": {"substrate": "O=C(O)C(=O)CS", "experiment": "H2S release, methylene blue assay", "format": "biochemical, Arabidopsis thaliana", "settings": "apparent, sulfur donor, acceptor 30 μM TRXo1 with NADPH and NTRB, pH 8.0, 25 °C", "description": "(§2) H2S release, methylene blue assay on STR1"}, "[11]": {"substrate": "N[C@@H](CS)C(=O)O", "experiment": "H2S release, methylene blue assay", "format": "biochemical, Arabidopsis thaliana", "settings": "apparent, sulfur acceptor, 250 μM 3-MP, pH 8.0, 25 °C", "description": "as §2", "remark": "listed apart in the source"}},
  "data": [
    {"molecule": "Sulfurtransferase 2 (STR2), cytosolic 3-mercaptopyruvate sulfurtransferase (Arabidopsis thaliana)", "values": [
      {"measurement": "pKa", "setting": "[1]", "value": "4.0 ± 0.1"}
    ]},
    {"molecule": "O=C(O)C(=O)CS", "note": "[3-MP]", "values": [
      {"measurement": "intrinsic tryptophan fluorescence quenching", "setting": "[2]", "value": "intrinsic fluorescence of both variants also decreased after addition of 3-MP"},
      {"measurement": "intrinsic tryptophan fluorescence quenching", "setting": "[3]", "value": "intrinsic fluorescence of both variants also decreased after addition of 3-MP"},
      {"measurement": "Kd", "setting": "[4]", "value": "1300 ± 900", "unit": "nM"},
      {"measurement": "Kd", "setting": "[5]", "value": "700 ± 300", "unit": "nM"}
    ]},
    {"molecule": "Sulfurtransferase 1 (STR1), mitochondrial 3-mercaptopyruvate sulfurtransferase (Arabidopsis thaliana)", "values": [
      {"measurement": "pKa", "setting": "[6]", "value": "3.8 ± 0.1"}
    ]},
    {"molecule": "3-mercaptopyruvate sulfurtransferase (human MST) (Homo sapiens)", "values": [
      {"measurement": "pKa", "setting": "[7]", "value": "5.2 ± 0.1"}
    ]},
    {"molecule": "STR2 (Arabidopsis thaliana) (protein, untagged, pET12a; E. coli BL21(DE3)) MKRAFSSQLRSAYPASKSTHFGRVMASSGSEAKANYAPISTNEPVVSVDWLHSNLGDADIKVLDASWYMAHEQRNPIQEYQVAHIPGALFFDLNGIADRKTNLRHMLPSEEAFAAGCSALGIENNDGVVVYDGMGLFSAARVWWMFRVFGHDKVWVLDGGLPKWRASGYDVESSVSNDAILKASAATEAIEKIYQGQTISPITFQTKFRPHLVLALDQVKENIEDKTYQHIDARSKARFDGIAPEPWKGLPSGHIPGSKCVPFPLMFDSSQTLLPAEELKKQFEQEDISLDSPIAASCGTGVTACILALGLYRLGKTNVAIYDGSWTEWATAPNLPIVGSSS", "values": [
      {"measurement": "Km", "setting": "[8]", "value": "377 ± 15", "unit": "µM"},
      {"measurement": "kcat", "setting": "[8]", "value": 9.7, "unit": "s⁻¹"},
      {"measurement": "Km", "setting": "[9]", "value": "1300 ± 70", "unit": "µM"},
      {"measurement": "kcat", "setting": "[9]", "value": 1.5, "unit": "s⁻¹"}
    ]},
    {"molecule": "STR1 (Arabidopsis thaliana) (protein, untagged (pET28a) or C-terminal His tag (used for Cys variants); E. coli BL21(DE3)) AMASTGVETKAGYSTSSVSTSEPVVSVDWLHANLREPDLKILDASWYMPDEQRNPIQEYQVAHIPRALFFDLDGISDRKTSLPHMLPTEEAFAAGCSALGIDNKDEVVVYDGKGIFSAARVWWMFRVFGHEKVWVLDGGLPRWRASGYDVESSASGDAILKASAASEAIEKIYQGQTVSPITFQTKFQPHLVWTLDQVKNNMEDPTYQHIDARSKARFDGTAPEPRKGIRSGHIPGSKCIPFPQMFDSCNTLLPAEELKKRFDQEDISLDKPIMASCGTGVTACILAMGLHRLGKTDVPIYDGSWTEWATQPDLPIESVESSS", "values": [
      {"measurement": "Km", "setting": "[10]", "value": "286 ± 5", "unit": "µM"},
      {"measurement": "kcat", "setting": "[10]", "value": 13.5, "unit": "s⁻¹"},
      {"measurement": "kcat/Km", "setting": "[10]", "value": 47000, "unit": "M⁻¹ s⁻¹"},
      {"measurement": "Km", "setting": "[11]", "value": "2200 ± 400", "unit": "µM"},
      {"measurement": "kcat", "setting": "[11]", "value": 3.9, "unit": "s⁻¹"},
      {"measurement": "kcat/Km", "setting": "[11]", "value": 1700, "unit": "M⁻¹ s⁻¹"}
    ]}
  ]
}
